Experiments:
[1] = target: human regulatory light chain (MYL2) (UniProt P10916); assay: Coomassie SDS-PAGE gel-based light chain loading assay; settings: read off a plot
[2] = target: human essential light chain (MYL3) (UniProt P08590); assay: as above; settings: read off a plot

ratio to parent [1] | ratio to parent [2] | Substance
1.3 | 1.1 | human β-cardiac myosin 2-hep heavy chain, wild type D778V
1.2 | 0.99 | human β-cardiac myosin 2-hep heavy chain, wild type L781P

From article PMC9242648
